Experimental findings from PMC9016349, “HOIL‐1 ubiquitin ligase activity targets unbranched glucosaccharides and is required to prevent polyglucosan accumulation” (The EMBO Journal, 2022) are described below.

The target of the assay is T1, His‐Halo‐tagged Met1‐linked ubiquitin tetramer (human, UniProt P0CG48 1-76; P0CG48 1-76; P0CG48 1-76; P0CG48 1-76).
T1 construct: ubiquitin (76-residue mature product of the polyubiquitin precursor), repeat 1 of 4, joined head to tail through Met1; ubiquitin (76-residue mature product), repeat 2 of 4; ubiquitin (76-residue mature product), repeat 3 of 4; ubiquitin (76-residue mature product), repeat 4 of 4; Tag end read from the printed name Halo‐M1‐Ub4; Covalently coupled to HaloLink resin through the Halo tag; also called …
Kind of assay: pull-down; Halo‐tagged M1‐linked tetraubiquitin covalently coupled to HaloLink resin; 10 μl beads with 2 μg bacterially expressed HOIL‐1 protein in 0.5 ml PBS pH 7.4, 0.001% NP‐40, 1 mM TCEP, 0.01 mg/ml BSA, 3.5 h at 4°C; bound protein detected by Coomassie staining. The settings on record: both partners purified.

T1 sequence (P0CG48 1-304, one chain of several): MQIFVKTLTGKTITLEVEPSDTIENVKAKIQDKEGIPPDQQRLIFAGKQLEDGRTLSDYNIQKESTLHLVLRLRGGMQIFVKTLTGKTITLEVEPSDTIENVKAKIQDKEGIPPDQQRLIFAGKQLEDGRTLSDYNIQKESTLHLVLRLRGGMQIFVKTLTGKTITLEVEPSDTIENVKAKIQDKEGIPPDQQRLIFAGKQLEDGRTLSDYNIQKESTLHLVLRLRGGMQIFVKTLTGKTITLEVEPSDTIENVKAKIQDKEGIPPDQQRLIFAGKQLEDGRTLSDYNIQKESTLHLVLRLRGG

B1: HOIL‐1 (haem‐oxidised IRP2 ubiquitin ligase‐1), full‐length untagged human, wild type (enzyme, UniProt Q9BYM8 1-510, looked up)
chain: MDEKTKKAEEMALSLTRAVAGGDEQVAMKCAIWLAEQRVPLSVQLKPEVSPTQDIRLWVSVEDAQMHTVTIWLTVRPDMTVASLKDMVFLDYGFPPVLQQWVIGQRLARDQETLHSHGVRQNGDSAYLYLLSARNTSLNPQELQRERQLRMLEDLGFKDLTLQPRGPLEPGPPKPGVPQEPGRGQPDAVPEPPPVGWQCPGCTFINKPTRPGCEMCCRARPEAYQVPASYQPDEEERARLAGEEEALRQYQQRKQQQQEGNYLQHVQLDQRSLVLNTEPAECPVCYSVLAPGEAVVLRECLHTFCRECLQGTIRNSQEAEVSCPFIDNTYSCSGKLLEREIKALLTPEDYQRFLDLGISIAENRSAFSYHCKTPDCKGWCFFEDDVNEFTCPVCFHVNCLLCKAIHEQMNCKEYQEDLALRAQNDVAARQTTEMLKVMLQQGEAMRCPQCQIVVQKKDGCDWIRCTVCHTEICWVTKGPRWGPGGPGDTSGGCRCRVNGIPCHPSCQNCH
notes: HOIL‐1 (RBCK1), human, full length (residues 1-510 by the printed construct limits); Tag end read from the printed name His6‐SUMO‐HOIL‐1; also called RBCK1; wild‐type HOIL‐1; source: E. coli BL21 (DE3), purified (tag removed with Ulp1; size exclusion chromatography or dialysis); not shown: His6, N-terminal, cleaved; SUMO, N-terminal, cleaved
As for B1, the binding result is on record as “binds”.
